From US20200369765A1 (INNATE PHARMA, published 2020) come the findings set out here.

Numbering of substitutions follows the chain as printed.

In assay [1] the target is T1, Human Siglec-9 N-terminal V-set Ig-like domain (human).
T1 construct: expressed on HEK293T cells
Kind of assay: flow cytometry, HEK293T cells expressing single Siglec-9 domains.

Another assay has as its target T2, Human Siglec-9 mutant M7 (human, UniProt Q9Y336 18-463).
T2 construct: Expressed on HEK293T cells; also called Mutant 7
Kind of assay: flow cytometry, HEK293T transfectants.

The target of the next assay is T3, Human Siglec-10 (human, UniProt Q96LC7 17-697).
T3 construct: Expressed on transfected CHO cells; also called HuSiglec-10
T3 sequence: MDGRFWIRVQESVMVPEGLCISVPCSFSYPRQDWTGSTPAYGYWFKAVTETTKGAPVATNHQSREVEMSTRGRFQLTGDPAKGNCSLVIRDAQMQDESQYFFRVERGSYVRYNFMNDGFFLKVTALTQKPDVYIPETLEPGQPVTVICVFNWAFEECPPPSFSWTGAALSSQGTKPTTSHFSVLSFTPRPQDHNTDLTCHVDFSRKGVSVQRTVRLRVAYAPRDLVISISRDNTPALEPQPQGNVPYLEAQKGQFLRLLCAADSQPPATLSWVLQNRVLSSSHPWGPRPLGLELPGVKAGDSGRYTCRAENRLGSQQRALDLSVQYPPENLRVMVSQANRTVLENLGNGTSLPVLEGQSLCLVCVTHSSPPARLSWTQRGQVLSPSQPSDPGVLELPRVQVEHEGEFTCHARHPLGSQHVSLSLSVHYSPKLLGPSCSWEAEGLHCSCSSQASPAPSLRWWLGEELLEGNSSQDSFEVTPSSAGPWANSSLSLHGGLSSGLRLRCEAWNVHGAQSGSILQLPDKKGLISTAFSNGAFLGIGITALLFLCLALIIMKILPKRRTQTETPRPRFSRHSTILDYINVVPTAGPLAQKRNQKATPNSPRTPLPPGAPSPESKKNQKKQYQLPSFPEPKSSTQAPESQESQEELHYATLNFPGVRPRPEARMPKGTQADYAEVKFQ
Kind of assay: flow cytometry, CHO transfectants. In general terms: Flow cytometry measures light scatter and fluorescence of single cells or particles in a stream.

Another assay addresses T4, Human Siglec-6 (human, UniProt O43699 27-453).
T4 construct: Expressed on transfected CHO cells; also called HuSiglec-6
Kind of assay: flow cytometry, CHO transfectants.

The next assay concerns the target T5, Human Siglec-3 (human, UniProt P20138 18-364).
T5 construct: Expressed on transfected CHO cells; also called HuSiglec-3; CD33
Nature of the assay: flow cytometry, CHO transfectants.

Another assay deals with T6, Human Siglec-5 (human, UniProt O15389 17-551).
T6 construct: Expressed on transfected CHO cells; also called HuSiglec-5
T6 sequence: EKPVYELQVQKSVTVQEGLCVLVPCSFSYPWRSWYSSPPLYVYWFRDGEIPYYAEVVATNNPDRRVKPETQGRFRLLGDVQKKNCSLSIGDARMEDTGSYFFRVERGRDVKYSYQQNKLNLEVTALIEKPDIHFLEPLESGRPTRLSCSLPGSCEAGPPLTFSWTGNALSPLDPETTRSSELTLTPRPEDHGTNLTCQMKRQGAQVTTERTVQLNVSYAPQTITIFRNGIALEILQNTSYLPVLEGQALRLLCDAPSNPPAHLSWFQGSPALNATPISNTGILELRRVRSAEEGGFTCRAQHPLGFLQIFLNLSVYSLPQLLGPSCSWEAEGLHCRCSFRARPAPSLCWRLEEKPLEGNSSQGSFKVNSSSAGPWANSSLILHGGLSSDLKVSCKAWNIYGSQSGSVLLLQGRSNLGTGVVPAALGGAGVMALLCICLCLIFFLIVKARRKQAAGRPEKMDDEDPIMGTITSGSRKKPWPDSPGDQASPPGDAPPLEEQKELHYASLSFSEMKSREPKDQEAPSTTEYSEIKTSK
Kind of assay: flow cytometry, CHO transfectants.

Another assay addresses T7, Human Siglec-8 (human, UniProt Q9NYZ4 17-499).
T7 construct: Expressed on transfected CHO cells; also called HuSiglec-8
Nature of the assay: flow cytometry, CHO transfectants.

In another assay the target is T8, Human Siglec-11 (human, UniProt Q96RL6 29-698).
T8 construct: Expressed on transfected CHO cells; also called HuSiglec-11
T8 sequence: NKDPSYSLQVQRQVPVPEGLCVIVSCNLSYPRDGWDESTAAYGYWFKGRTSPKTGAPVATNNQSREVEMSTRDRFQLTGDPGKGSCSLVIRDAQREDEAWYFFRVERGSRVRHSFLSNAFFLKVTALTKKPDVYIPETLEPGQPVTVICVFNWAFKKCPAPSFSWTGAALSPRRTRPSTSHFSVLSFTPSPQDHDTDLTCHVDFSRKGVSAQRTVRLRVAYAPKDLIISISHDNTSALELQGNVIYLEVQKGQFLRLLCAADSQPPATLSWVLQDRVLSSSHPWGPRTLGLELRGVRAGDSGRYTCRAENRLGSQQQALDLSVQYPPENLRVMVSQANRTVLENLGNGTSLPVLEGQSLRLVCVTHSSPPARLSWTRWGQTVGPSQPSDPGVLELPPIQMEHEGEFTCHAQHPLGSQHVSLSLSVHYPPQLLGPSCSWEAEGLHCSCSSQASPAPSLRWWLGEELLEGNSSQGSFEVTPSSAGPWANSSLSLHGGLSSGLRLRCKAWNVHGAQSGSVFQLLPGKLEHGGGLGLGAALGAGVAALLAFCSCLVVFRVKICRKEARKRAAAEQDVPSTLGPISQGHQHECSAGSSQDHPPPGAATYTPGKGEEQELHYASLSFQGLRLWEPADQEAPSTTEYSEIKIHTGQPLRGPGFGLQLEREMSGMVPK
Nature of the assay: flow cytometry, CHO transfectants.

The next assay deals with T9, Human Siglec-12 (human, UniProt Q96PQ1 19-595).
T9 construct: Expressed on transfected CHO cells; also called HuSiglec-12
T9 sequence (Q96PQ1 19-595): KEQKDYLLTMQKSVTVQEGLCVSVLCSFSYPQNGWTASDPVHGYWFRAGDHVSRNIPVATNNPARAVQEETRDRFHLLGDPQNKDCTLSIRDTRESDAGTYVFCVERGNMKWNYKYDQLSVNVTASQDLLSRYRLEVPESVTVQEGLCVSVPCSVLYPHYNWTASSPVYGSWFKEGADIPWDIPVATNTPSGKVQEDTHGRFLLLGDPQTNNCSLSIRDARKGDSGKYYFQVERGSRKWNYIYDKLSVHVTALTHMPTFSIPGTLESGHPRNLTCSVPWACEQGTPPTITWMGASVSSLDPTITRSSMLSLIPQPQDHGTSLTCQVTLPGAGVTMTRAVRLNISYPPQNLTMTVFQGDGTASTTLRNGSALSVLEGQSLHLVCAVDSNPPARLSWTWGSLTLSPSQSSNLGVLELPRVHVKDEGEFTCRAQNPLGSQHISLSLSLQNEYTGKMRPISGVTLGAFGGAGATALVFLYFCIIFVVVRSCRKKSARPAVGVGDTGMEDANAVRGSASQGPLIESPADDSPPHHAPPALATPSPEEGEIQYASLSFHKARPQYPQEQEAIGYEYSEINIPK
Nature of the assay: flow cytometry, CHO transfectants.

T4 sequence (O43699 other isoform, or with tags, fused parts or gaps): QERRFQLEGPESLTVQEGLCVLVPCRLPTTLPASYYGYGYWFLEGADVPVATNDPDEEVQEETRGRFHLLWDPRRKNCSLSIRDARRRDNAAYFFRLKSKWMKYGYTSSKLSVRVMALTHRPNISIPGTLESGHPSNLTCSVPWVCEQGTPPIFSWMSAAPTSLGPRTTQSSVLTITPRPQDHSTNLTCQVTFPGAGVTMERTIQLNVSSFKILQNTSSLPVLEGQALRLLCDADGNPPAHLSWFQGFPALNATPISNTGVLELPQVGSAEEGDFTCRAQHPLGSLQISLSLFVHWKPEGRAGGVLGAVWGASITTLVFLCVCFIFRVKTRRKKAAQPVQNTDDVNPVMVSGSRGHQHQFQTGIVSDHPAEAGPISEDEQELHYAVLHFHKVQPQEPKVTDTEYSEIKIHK
T2 sequence (Q9Y336 other isoform, or with tags, fused parts or gaps mutant): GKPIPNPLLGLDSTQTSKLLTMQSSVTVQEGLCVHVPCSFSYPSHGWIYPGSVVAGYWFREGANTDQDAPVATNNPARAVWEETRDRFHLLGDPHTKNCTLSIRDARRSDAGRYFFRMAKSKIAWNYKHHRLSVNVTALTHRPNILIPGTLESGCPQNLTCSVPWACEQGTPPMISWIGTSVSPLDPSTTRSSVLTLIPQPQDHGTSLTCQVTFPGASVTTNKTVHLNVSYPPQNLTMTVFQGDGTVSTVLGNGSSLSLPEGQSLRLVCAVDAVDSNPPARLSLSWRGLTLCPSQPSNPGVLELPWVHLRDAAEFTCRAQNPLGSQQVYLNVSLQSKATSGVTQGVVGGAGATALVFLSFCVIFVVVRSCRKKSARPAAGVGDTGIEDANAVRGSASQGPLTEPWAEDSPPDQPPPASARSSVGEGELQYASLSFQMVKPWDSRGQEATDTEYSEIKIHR
T5 sequence (P20138 18-364 R69G): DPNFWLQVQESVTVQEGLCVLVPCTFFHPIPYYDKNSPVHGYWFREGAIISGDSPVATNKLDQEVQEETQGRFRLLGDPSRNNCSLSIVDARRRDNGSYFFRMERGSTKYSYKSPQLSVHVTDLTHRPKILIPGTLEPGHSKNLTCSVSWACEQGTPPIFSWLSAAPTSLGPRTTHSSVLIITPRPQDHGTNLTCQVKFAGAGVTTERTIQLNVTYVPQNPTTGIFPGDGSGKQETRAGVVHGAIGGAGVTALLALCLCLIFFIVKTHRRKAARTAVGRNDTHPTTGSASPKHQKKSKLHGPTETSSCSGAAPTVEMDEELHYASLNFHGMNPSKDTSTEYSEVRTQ
T7 sequence (Q9NYZ4 17-499): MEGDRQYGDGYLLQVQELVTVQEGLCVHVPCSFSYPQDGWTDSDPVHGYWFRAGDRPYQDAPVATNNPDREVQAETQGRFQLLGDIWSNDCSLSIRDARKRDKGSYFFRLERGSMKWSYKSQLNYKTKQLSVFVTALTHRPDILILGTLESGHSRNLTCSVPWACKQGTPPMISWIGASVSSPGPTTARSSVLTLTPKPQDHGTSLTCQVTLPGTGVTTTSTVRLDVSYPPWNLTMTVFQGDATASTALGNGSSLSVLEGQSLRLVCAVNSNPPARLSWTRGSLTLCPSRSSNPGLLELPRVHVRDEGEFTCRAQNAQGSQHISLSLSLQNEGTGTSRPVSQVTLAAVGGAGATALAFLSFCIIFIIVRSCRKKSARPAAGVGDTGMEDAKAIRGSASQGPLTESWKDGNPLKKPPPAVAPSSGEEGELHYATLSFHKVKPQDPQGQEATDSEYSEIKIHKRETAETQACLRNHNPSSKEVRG

B1: mAbE (antibody, human IgG1, V domains shown)
VH: DVQLVESGGGLVQPGGSRKLSCAASGFTFSTFGMHWVRQAPEKGLEWVAYISSGSNAIYYADTVKGRFTISRDNPKNTLFLQMTSLRSEDTAMYYCASPGYGAWFAYWGQGTLVTVSA
VL: ENVLTQSPAIMSASPGEKVTMTCRASSSVSSAYLHWYQQKSGASPKLWIYSTSNLASGVPARFSGSGSGTSYSLTISSVEAEDAATYYCQQYSAYPYTFGGGTKLEIK
As for B1, the binding result in assay [1] was “binds”; in the assay with Human Siglec-9 mutant M7 it was “binds”; with Human Siglec-10 it was “no binding”; with Human Siglec-6, “no binding”; in the assay with Human Siglec-3 it was “no binding”; with Human Siglec-5, “no binding”. Moreover, the binding result with Human Siglec-8, with Human Siglec-11 and with Human Siglec-12 was “no binding” throughout.

B2: mAbF (antibody, human IgG1, V domains shown)
VH: QVQLQQSGPEVVRPGVSVKISCKGSGYTFTDYSMHWVKQSHAKSLEWIGVISTYNGNTNYNQKFKGKATMTVDKSSSTAYMELARLTSEDSAIYYCARRGYYGSSSWFGYWGQGTLVTVSA
VL: DIVMTQSQKFMSTSVGDRVSVTCKASQNVGTDVAWYQQKPGQSPEALIYSASYRYSGVPDRFTGSGSGADFTLTISNVQSEDLAEYFCQQYNSFPYTFGGGTKLEIK
With B2, the binding result in [1] was “binds”; with Human Siglec-9 mutant M7, “binds”; with Human Siglec-10, “no binding”; with Human Siglec-6, “no binding”; with Human Siglec-3, “no binding”; with Human Siglec-5, “no binding”. The binding result with Human Siglec-8, with Human Siglec-11 and with Human Siglec-12 was “no binding” in each case.

B3: mAbA (antibody, human IgG1, V domains shown)
VH: QVQLQQPGAELVKPGSPVKLSCKASYFTFTSYWMHWVRQRPGQGLEWIGEINPSNGHTNYNEKFESKATLTVDRSSSTAYMQLSSLTSEDSAVFYCANGVESYDFDDALDYWGQGTSVTVSS
VL: DIQMTQTTSSLSASLGDRVTISCRASQDINNYLNWYQQKPDGTIKLLIYYTSRLHSGVPSRFSGSGSGTDYSLTINNLEQEDIATYFCQQGNTLPFTFGGGTKLEIK
With B3, the binding result in assay [1] is recorded as “binds”; with Human Siglec-9 mutant M7, “binds”; with Human Siglec-10 it was “no binding”; in the assay with Human Siglec-6, “no binding”; in the assay with Human Siglec-3 it was “no binding”; in the assay with Human Siglec-5, “no binding”. Also, the binding result with Human Siglec-8, with Human Siglec-11 and with Human Siglec-12 was “no binding” throughout.

B4: mAbB (antibody, human IgG1, V domains shown)
VH: QVQLQQPGAELVKPGASVKLSCKASVYTFTSYWMHWVKQRPGQGLEWIGEINPSNGHTNYNEKFKTKAKLTVDKSSSTAYMQLSSLTSEDSAVYFCANGVETYDFDDAMDYWGQGTSVTVSS
VL: B3 VL with I44V, Y50F, N76S, N92D, L94F
Regarding B4, the binding result is “binds” in assay [1]; “binds” in the assay with Human Siglec-9 mutant M7; “no binding” with Human Siglec-10; “no binding” with Human Siglec-6; “no binding” with Human Siglec-3; “no binding” with Human Siglec-5. Also, the binding result in the assay with Human Siglec-8, with Human Siglec-11 and with Human Siglec-12 was “no binding” each time.

B5: mAbD (antibody, human IgG1, V domains shown)
VH: QIQLVQSGPELKKPGETVKISCKASGYTFTDYSMHWVKQAPGKGLKWMGWIITETGEPTYADDFRGRFAFSLETSANTAYLQINNLKNEDTATYFCARDFDGYWGQGTTLTVSS
VL: DILMTQSPASLSASVGETVTITCRASENIYSYLAWYQQKRGKSPQFLVYNAKTLTEGVPSRFRGSGSGTQFSLKINSLQPEDFGTYYCQHHYGFPWTFGGGTKLEIK
Turning to B5, the binding result in assay [1] is “binds”; in the assay with Human Siglec-10, “no binding”; in the assay with Human Siglec-6 it was “no binding”; in the assay with Human Siglec-3, “no binding”; in the assay with Human Siglec-5, “no binding”; with Human Siglec-8 it was “no binding”. The binding result with Human Siglec-11 and with Human Siglec-12 was “no binding” in each case.

B6: mAbC (antibody, human IgG1, V domains shown)
VH: QIQLVQSGPELKKPGETVKISCKASGYTFTNYEMNWVKEAPGKGLKWMGWINTYTGESTYADDFKGRFAFSLETSASTVYLQINNLKDEDVATYFCVRDDYGRSYGFAYWGQGTLVTVSA
VL: NIVLTQSPASLTVSLGQRANISCRASESVDSYGNSFMHWYQQKPGQPPKLLIYLASKLESGVPARFSGSGSRTDFTLTIDPVETDDAATYYCHQNNEDPPWTFGGGTKLEIK
In the case of B6, the binding result is recorded as “binds” in assay [1]; “binds” with Human Siglec-9 mutant M7; “no binding” with Human Siglec-10; “no binding” in the assay with Human Siglec-6; “no binding” with Human Siglec-3; “no binding” in the assay with Human Siglec-5. Also, the binding result in the assay with Human Siglec-8, with Human Siglec-11 and in the assay with Human Siglec-12 was “no binding” throughout.
